According to article PMC6927759:

Key:
[1] = biological target: human IL-13 (Homo sapiens) (UniProt P35225); test: SPR
[2] = biological target: anti-IL-13 IgG4 variant VH Y98L (human (humanized antibody)); test: SPR

## anti-IL-13 IgG4 (lebrikizumab), parent (antibody)
[1]
  kon: 2.16e+06 M⁻¹ s⁻¹

## anti-IL-13 IgG4 variant VH Y97L (antibody)
[1]
  Kd: < 0.01 nM
  koff: < 0.0001 s⁻¹
  kon: 2.08e+06 M⁻¹ s⁻¹

## anti-IL-13 IgG4 variant VH Y100Q (antibody)
[1]
  Kd: 3.32 nM
  koff: 0.00331 s⁻¹

## human IL-13 (from UniProt P35225 25-146) (ligand)
[2]
  Kd: 0.0753 nM
  koff: 8.76e-05 s⁻¹
  kon: 1.16e+06 M⁻¹ s⁻¹
